According to paper PMC7265355 (2020):

Tests used:
[1] = biological target: T1, ACE2-Ig (extracellular domain of human ACE2 linked to the Fc domain of human IgG1) (human, UniProt Q9BYF1 18-740); test: SPR
[2] = biological target: T1, ACE2-Ig (extracellular domain of human …); test: SPR; remark: listed apart in the source

T1 sequence (Q9BYF1 18-740): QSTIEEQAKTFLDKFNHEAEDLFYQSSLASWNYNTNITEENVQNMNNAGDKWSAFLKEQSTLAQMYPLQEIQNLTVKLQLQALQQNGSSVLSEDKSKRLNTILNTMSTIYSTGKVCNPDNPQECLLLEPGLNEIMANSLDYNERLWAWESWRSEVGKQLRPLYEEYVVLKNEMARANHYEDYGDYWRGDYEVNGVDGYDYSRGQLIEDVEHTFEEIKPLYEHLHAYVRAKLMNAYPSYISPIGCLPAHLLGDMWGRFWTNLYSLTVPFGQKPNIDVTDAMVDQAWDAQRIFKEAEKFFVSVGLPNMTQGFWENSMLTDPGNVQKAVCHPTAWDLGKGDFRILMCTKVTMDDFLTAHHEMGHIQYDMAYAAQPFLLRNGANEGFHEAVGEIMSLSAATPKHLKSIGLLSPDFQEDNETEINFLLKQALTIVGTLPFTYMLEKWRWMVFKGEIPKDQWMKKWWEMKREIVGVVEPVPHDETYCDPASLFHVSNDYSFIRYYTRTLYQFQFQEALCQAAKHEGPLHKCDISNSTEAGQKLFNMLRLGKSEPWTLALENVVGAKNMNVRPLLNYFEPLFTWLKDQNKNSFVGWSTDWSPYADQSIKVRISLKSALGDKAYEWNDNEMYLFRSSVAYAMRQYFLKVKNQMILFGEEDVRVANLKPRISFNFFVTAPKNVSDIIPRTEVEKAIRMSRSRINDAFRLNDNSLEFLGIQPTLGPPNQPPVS

B1: SARS-CoV S protein (natural protein)
chain: not shown
With B1 the Kd [1] was 0.177 µM and the koff [2] was 0.00294 s⁻¹.
